Assay: Specificity of different cyclodextrin glucosyltransferases to glycosylated genistein products (maltodextrin donor, genistein receptor, HPLC)
Assay type: biochemical
Conditions: for content of long-chain glycosylated genistein in the reaction solution / content of short-chain glycosylated genistein in the reaction solution / ratio of the molar content of long-chain glycosylated genistein to the molar content of total glycosylated genistein in the reaction solution / ratio of the molar content of short-chain glycosylated genistein to the molar content of total glycosylated genistein in the reaction solution: 40° C., pH 6.5, 120 rpm, 20-24 hours; for specificity to long-chain glycosylated genistein products in comparison with wild type: in words, from Tables 1 to 2; for increase of the yield of long-chain glycosylated genistein compared with wild-type cyclodextrin glucosyltransferase: versus wild type
Procedure: Genistein (purchased from Sigma) was dissolved in dimethyl sulfoxide (DMSO) to prepare a genistein solution with a final concentration of 7.5 g/L; maltodextrin (purchased from Shanghai Sangon Biotech Co., Ltd.) was dissolved in a PBS buffer (50 mM, pH 6.5) to prepare a maltodextrin solution with a final concentration of 40 g/L; the freeze-fried pure enzymes of the mutants A156V/L174P, A156V/L174P/166Y, A156V/L174P/A166V, A156V/L174P/A166G, A156V/L174P/A166K, A156S, A156L and L174M obtained in Example 1 were dissolved in a PBS buffer (50 mM, pH 6.5) separately to prepare a CGTase enzyme solution with a final concentration of 15 U/L; 300 μL of the genistein solution, 500 μL of the maltodextrin solution and 200 μL of the CGTase enzyme solution were taken separately, mixed in a 2 mL vial with a lid and placed in a shaker for slow shaking at 40° C. and 120 rpm for 20-24 hours to obtain a reaction solution.
The molar content of short-chain glycosylated genistein (here the short-chain glycosylated genistein was a mixture of monoglycosylated genistein, diglycosylated genistein and triglycosylated genistein) and long-chain glycosylated genistein (here the long-chain glycosylated genistein was a mixture of tetraglycosylated genistein, pentaglycosylated genistein and hexaglycosylated genistein) in the reaction solution was detected by HPLC, the ratio (%) of the molar content of short-chain glycosylated genistein and long-chain glycosylated genistein in the reaction solution to the molar content of total glycosylated genistein in the reaction solution and the content (g/L) of short-chain glycosylated genistein and long-chain glycosylated genistein in the reaction solution were calculated, and detection results were shown in Tables 1 to 2. A method for detecting the ratio (%) of the content of short-chain glycosylated genistein and long-chain glycosylated genistein in the reaction solution to the content of total glycosylated genistein in the reaction solution by HPLC included that the reaction solution was filtered through a 0.22 μm filter membrane, and an Amethyst C18-H column (4.6*250 mm, Sepax, America) was used for detection (see Table 3 for specific detection conditions). The content of long-chain glycosylated genistein=the molar content of hexaglycosylated genistein*the molecular weight of hexaglycosylated genistein+ the molar content of pentaglycosylated genistein*the molecular weight of pentaglycosylated genistein+ the molar content of tetraglycosylated genistein*the molecular weight of tetraglycosylated genistein, and the content of short-chain glycosylated genistein=the molar content of triglycosylated genistein*the molecular weight of triglycosylated genistein+ the molar content of diglycosylated genistein*the molecular weight of diglycosylated genistein+ the molar content of monoglycosylated genistein*the molecular weight of monoglycosylated genistein.

Row | Molecule | content of long-chain glycosylated genistein in the reaction solution | content of short-chain glycosylated genistein in the reaction solution | ratio of the molar content of long-chain glycosylated genistein to the molar content of total glycosylated genistein in the reaction solution | ratio of the molar content of short-chain glycosylated genistein to the molar content of total glycosylated genistein in the reaction solution | specificity to long-chain glycosylated genistein products in comparison with wild type | increase of the yield of long-chain glycosylated genistein compared with wild-type cyclodextrin glucosyltransferase
1 | A156V/L174P: cyclodextrin glucosyltransferase mutant: alanine 156 into valine and leucine 174 into proline of SEQ ID NO: 1 (protein, Translated from synthetic DNA) SPDTSVDNKVNFSTDVIYQIVTDRFADGDRTNNPAGDAFSGDRSNLKLYFGGDWQGIIDKINDGYLTGMGVTALWISQPVENITSVIKYSGVNNTSYHGYWARDFKQTNDAFGDFADFQNLIDTAHAHNIKVVIDFAPNHTSPADRDNPGFAENGVLYDNGSLLGAYSNDTAGPFHHNGGTDFSTIEDGIYKNLYDLADINHNNNAMDAYFKSAIDLWLGMGVDGIRFDAVKHMPFGWQKSFVSSIYGGDHPVFTFGEWYLGADQTDGDNIKFANESGMNLLDFEYAQEVREVFRDKTETMKDLYEVLASTESQYDYINNMVTFIDNHDMDRFQVAGSGTRATEQALALTLTSRGVPAIYYGTEQYMTGDGDPNNRAMMTSFNTGTTAYKVIQALAPLRKSNPAIAYGTTTERWVNNDVLIIERKFGSSAALVAINRNSSAAYPISGLLSSLPAGTYSDVLNGLLNGNSITVGSGGAVTNFTLAAGGTAVWQYTAPETSPAIGNVGPTMGQPGNIVTIDGRGFGGTAGTVYFGTTAVTGSGIVSWEDTQIKAVIPKVAAGKTGVSVKTSSGTASNTFKSFNVLTGDQVTVRFLVNQANTNYGTNVYLVGNAAELGSWDPNKAIGPMYNQVIAKYPSWYYDVSVPAGTKLDFKFIKKGGGTVTWEGGGNHTYTTPASGVGTVTVDWQN | 5.2 g/L | 9.7 g/L | 25% | 75% | significantly improved | 62.5%
2 | A156V/L174P/A166G: cyclodextrin glucosyltransferase mutant: A156V, L174P and alanine 166 into glycine of SEQ ID NO: 1 (protein, Translated from synthetic DNA) SPDTSVDNKVNFSTDVIYQIVTDRFADGDRTNNPAGDAFSGDRSNLKLYFGGDWQGIIDKINDGYLTGMGVTALWISQPVENITSVIKYSGVNNTSYHGYWARDFKQTNDAFGDFADFQNLIDTAHAHNIKVVIDFAPNHTSPADRDNPGFAENGVLYDNGSLLGGYSNDTAGPFHHNGGTDFSTIEDGIYKNLYDLADINHNNNAMDAYFKSAIDLWLGMGVDGIRFDAVKHMPFGWQKSFVSSIYGGDHPVFTFGEWYLGADQTDGDNIKFANESGMNLLDFEYAQEVREVFRDKTETMKDLYEVLASTESQYDYINNMVTFIDNHDMDRFQVAGSGTRATEQALALTLTSRGVPAIYYGTEQYMTGDGDPNNRAMMTSFNTGTTAYKVIQALAPLRKSNPAIAYGTTTERWVNNDVLIIERKFGSSAALVAINRNSSAAYPISGLLSSLPAGTYSDVLNGLLNGNSITVGSGGAVTNFTLAAGGTAVWQYTAPETSPAIGNVGPTMGQPGNIVTIDGRGFGGTAGTVYFGTTAVTGSGIVSWEDTQIKAVIPKVAAGKTGVSVKTSSGTASNTFKSFNVLTGDQVTVRFLVNQANTNYGTNVYLVGNAAELGSWDPNKAIGPMYNQVIAKYPSWYYDVSVPAGTKLDFKFIKKGGGTVTWEGGGNHTYTTPASGVGTVTVDWQN | 4.4 g/L | 10.9 g/L | 20% | 80% | significantly improved | 
3 | A156V/L174P/A166K: cyclodextrin glucosyltransferase mutant: A156V, L174P and alanine 166 into lysine of SEQ ID NO: 1 (protein, Translated from synthetic DNA) SPDTSVDNKVNFSTDVIYQIVTDRFADGDRTNNPAGDAFSGDRSNLKLYFGGDWQGIIDKINDGYLTGMGVTALWISQPVENITSVIKYSGVNNTSYHGYWARDFKQTNDAFGDFADFQNLIDTAHAHNIKVVIDFAPNHTSPADRDNPGFAENGVLYDNGSLLGKYSNDTAGPFHHNGGTDFSTIEDGIYKNLYDLADINHNNNAMDAYFKSAIDLWLGMGVDGIRFDAVKHMPFGWQKSFVSSIYGGDHPVFTFGEWYLGADQTDGDNIKFANESGMNLLDFEYAQEVREVFRDKTETMKDLYEVLASTESQYDYINNMVTFIDNHDMDRFQVAGSGTRATEQALALTLTSRGVPAIYYGTEQYMTGDGDPNNRAMMTSFNTGTTAYKVIQALAPLRKSNPAIAYGTTTERWVNNDVLIIERKFGSSAALVAINRNSSAAYPISGLLSSLPAGTYSDVLNGLLNGNSITVGSGGAVTNFTLAAGGTAVWQYTAPETSPAIGNVGPTMGQPGNIVTIDGRGFGGTAGTVYFGTTAVTGSGIVSWEDTQIKAVIPKVAAGKTGVSVKTSSGTASNTFKSFNVLTGDQVTVRFLVNQANTNYGTNVYLVGNAAELGSWDPNKAIGPMYNQVIAKYPSWYYDVSVPAGTKLDFKFIKKGGGTVTWEGGGNHTYTTPASGVGTVTVDWQN | 5.1 g/L | 10.1 g/L | 24% | 76% | significantly improved | 59.4%
4 | A156V/L174P/A166V: cyclodextrin glucosyltransferase mutant: A156V, L174P and alanine 166 into valine of SEQ ID NO: 1 (protein, Translated from synthetic DNA) SPDTSVDNKVNFSTDVIYQIVTDRFADGDRTNNPAGDAFSGDRSNLKLYFGGDWQGIIDKINDGYLTGMGVTALWISQPVENITSVIKYSGVNNTSYHGYWARDFKQTNDAFGDFADFQNLIDTAHAHNIKVVIDFAPNHTSPADRDNPGFAENGVLYDNGSLLGVYSNDTAGPFHHNGGTDFSTIEDGIYKNLYDLADINHNNNAMDAYFKSAIDLWLGMGVDGIRFDAVKHMPFGWQKSFVSSIYGGDHPVFTFGEWYLGADQTDGDNIKFANESGMNLLDFEYAQEVREVFRDKTETMKDLYEVLASTESQYDYINNMVTFIDNHDMDRFQVAGSGTRATEQALALTLTSRGVPAIYYGTEQYMTGDGDPNNRAMMTSFNTGTTAYKVIQALAPLRKSNPAIAYGTTTERWVNNDVLIIERKFGSSAALVAINRNSSAAYPISGLLSSLPAGTYSDVLNGLLNGNSITVGSGGAVTNFTLAAGGTAVWQYTAPETSPAIGNVGPTMGQPGNIVTIDGRGFGGTAGTVYFGTTAVTGSGIVSWEDTQIKAVIPKVAAGKTGVSVKTSSGTASNTFKSFNVLTGDQVTVRFLVNQANTNYGTNVYLVGNAAELGSWDPNKAIGPMYNQVIAKYPSWYYDVSVPAGTKLDFKFIKKGGGTVTWEGGGNHTYTTPASGVGTVTVDWQN | 6.8 g/L | 9.5 g/L | 29% | 71% | significantly improved | 112.5%

— US11203743B2, “Method for producing long-chain glycosylated genistein” (Jiangnan University, priority 2019, dated 2021)
